Target: mouse ASIC1a wild type (mouse) (UniProt Q6NXK8)
UniProt Q6NXK8, sequence (Q6NXK8 whole entry): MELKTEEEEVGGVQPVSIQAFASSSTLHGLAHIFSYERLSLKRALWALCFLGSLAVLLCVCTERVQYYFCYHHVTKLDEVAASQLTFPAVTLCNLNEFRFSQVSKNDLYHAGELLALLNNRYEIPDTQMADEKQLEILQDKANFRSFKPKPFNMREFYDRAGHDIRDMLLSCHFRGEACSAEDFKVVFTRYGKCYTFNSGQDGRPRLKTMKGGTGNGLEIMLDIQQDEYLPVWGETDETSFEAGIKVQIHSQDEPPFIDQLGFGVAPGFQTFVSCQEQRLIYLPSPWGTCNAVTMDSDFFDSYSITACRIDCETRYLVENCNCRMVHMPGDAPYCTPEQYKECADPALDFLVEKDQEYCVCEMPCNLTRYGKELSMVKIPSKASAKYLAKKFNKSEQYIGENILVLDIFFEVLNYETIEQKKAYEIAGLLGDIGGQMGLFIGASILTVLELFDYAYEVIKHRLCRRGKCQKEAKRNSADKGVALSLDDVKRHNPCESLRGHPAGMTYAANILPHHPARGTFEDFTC

fold increase of the EC50 of current rescue against BigDyn (TEVC): > 50 fold
Substance: BigDyn Arg9Ala (peptide)

— article doi:10.1101/816264
